The data set addresses RNA polymerase (His6 RNAP; holoenzyme) (Escherichia coli, UniProt P0A7Z4;P0A8V2;P0A8T7;P0A800;P00579 …). Put plainly: in vitro transcription, reduction of rrnB termination vs Rev #5713, purified RNAP only. To be noted: tags: His6 (Nudler Lab) or holoenzyme from Affymetrix; chain copies: 2,1,1,1,1. Here is the method:
Transcription reactions were performed in solution. Wild-type E. coli His6 RNAP (Evgeny Nudler Lab) and wild-type E. coli RNAP Holoenzyme (Affymetrix) were used in the assays. […] Then AUC RNA primer (Dharmacon) was added up to 10 μM together with GTP (25 μM) and ATP (25 μM) followed by incubation at 37° C. for 5 minutes. Next, [α-32P]-CTP (800 Ci/mmol, 2 μl, Hartmann Analytic) was added for another 2 min. To minimize RNA degradation 10 U of RNasin® Ribonuclease Inhibitor (Promega) were added to the reaction. For the reactions with Rho and NusG, the purified transcription factors were added in a concentration of up to 0.5 μM to the transcriptional mixtures where indicated, followed by additional incubation at 37° C. for 5 minutes. Chasing reaction was performed with all four NTPs added to a final concentration of 10-50 μM. To prevent re-initiation, rifampicin (Sigma) was added concurrently at this step to a final concentration of 10 μM. At the indicated time points, an aliquot of chase reaction was quenched with 3× Stop Solution, containing 100 mM EDTA, 8M UREA, 0.025% xylenthianol and 0.025% bromophenol blue. The products were separated by 6% denaturing TBE-PAGE (8M urea). […]

With GACAACAUGAGAACAGUUCAGCAGCACUA (ssRNA) [RAP #5713], the activity is more than 2 fold.

For the origin of these results see patent US20180073026, “NOVEL EXPRESSION REGULATING RNA-MOLECULES AND USES THEREOF” (Universität Wien, published 2018).
